According to patent publication US20260242478A1 (published 2026):
Where no end group is shown, it is not given here.

Key:
[1] = biological target: T1, Anti-PSMA Fab (SEQ ID NOs: 19, 20); assay: phage binding ELISA on captured anti-PSMA Fab; competitor: PSMA antigen pre-incubated in the wells
T1 construct: Biotinylated PSMA Fab captured on neutravidin coated plates in the phage ELISA; also called 006 PSMA Fab
Protocol: (§1) Clonal phage were harvested as crude supernatants and screened via standard ELISAs. […] Prior to the addition of clonal phage. wells were incubated with blocking buffer and PSMA antigen or blocking buffer alone. Without washing or aspirating, clonal phage supernatants were then added to the wells and incubated for a short time. Wells were then washed followed by detection of bound phage using a horse radish conjugated anti-M13 antibody.

[2] = biological target: T1, Anti-PSMA Fab (SEQ ID NOs: 19, 20); assay: phage binding ELISA; biotinylated anti-PSMA Fab on neutravidin plate, bound phage detected with anti-M13-HRP
Protocol: as §1

[3] = biological target: T2, Anti-PSMA Fab (SEQ ID NOs: 19, 20); assay: phage ELISA; PSMA Fab on plate pre-incubated with PSMA antigen as competitor, anti-M13 HRP detection;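 note: crude clonal phage supernatants added to Fab-coated wells still holding PSMA antigen in blocking buffer, with bound phage as read-out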
T2 construct: In the phage ELISA the Fab was biotinylated and captured on neutravidin coated plates; also called 006 PSMA Fab
Protocol: as §1

[4] = biological target: T2, Anti-PSMA Fab (SEQ ID NOs: 19, 20); assay: phage ELISA; biotinylated PSMA Fab on neutravidin plate, clonal phage supernatant, anti-M13 HRP detection;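 note: wells preincubated with PSMA antigen in blocking buffer or with blocking buffer only before clonal phage were added for a short incubation, then bound phage detected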
Protocol: as §1

[5] = biological target: T3, Anti-PSMA Fab (SEQ ID NOs: 19, 20); assay: phage binding ELISA; biotinylated PSMA Fab on neutravidin plate, clonal phage supernatant, anti-M13 HRP detection;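 note: wells were preincubated with blocking buffer either containing PSMA antigen or without it before crude phage supernatant was added, briefly incubated, then washed prior to detection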
T3 construct: In the panning ELISA the Fab was biotinylated and captured on neutravidin coated plates; also called 006 PSMA Fab
Protocol: as §1

[6] = biological target: T3, Anti-PSMA Fab (SEQ ID NOs: 19, 20); assay: phage binding ELISA; biotinylated PSMA Fab on neutravidin plate pre-incubated with PSMA antigen (competitor), anti-M13 HRP detection;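 note: competition ELISA where clonal phage supernatants were added to wells preincubated with PSMA antigen or with blocking buffer only as control, bound phage read via HRP-coupled anti-M13 antibody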
Protocol: as §1

| Binder | Anti-PSMA Fab signal in the presence of PSMA [1] | Anti-PSMA Fab (SEQ ID NOs: 19, 20) signal [2] | Phage binding ELISA, Anti-PSMA Fab signal in the presence of PSMA [3] | Phage binding ELISA, Anti-PSMA Fab signal [4] | other results |
| --- | --- | --- | --- | --- | --- |
| WEHWCRPAWMCESL [Phage-1866] | 0.134 | 2.12 |  |  |  |
| PTKLCIPEWMCYVR (cysteine pairing not given here; also: displayed on phage as pIII fusion, pIII and linker sequences not given here, Clone of the Peptide-180 library) [Phage-1850] |  |  | 0.0692 | 2.17 |  |
| DFRWCIPEWMCTGY [Phage-1863] | 0.11 | 2.14 |  |  |  |
| EITRCIPAWMCDFW [Phage-1865] | 0.081 | 2.13 |  |  |  |
| MGNWCIPTWMCTGF (cysteine pairing not given here; also: displayed on phage as pIII fusion, pIII and linker sequences not given here, Clone of the Peptide-180 library) [Phage-1856] |  |  | 0.162 | 2.16 |  |
| WDHWCTPAWMCEFV (cysteine pairing not given here; also: displayed on phage as pIII fusion, pIII and linker sequences not given here, Clone of the Peptide-180 library) [Phage-1852] |  |  | 0.0692 | 2.17 |  |
| FVPWCIPAWMCAEN (cysteine pairing not given here; also: displayed on phage as pIII fusion, pIII sequence and linker not given here) [Phage-1875] | 0.111 | 2.08 |  |  |  |
| SEMLCKPSWMCLGF (cysteine pairing not given here; also: displayed on phage as pIII fusion, pIII and linker sequences not given here, Clone of the Peptide-180 library) [Phage-1851] |  |  | 0.0726 | 2.17 |  |
| MEKWCTPSWMCVGF (cysteine pairing not given here; also: displayed on phage as pIII fusion, pIII and linker sequences not given here, Clone of the Peptide-180 library) [Phage-1855] |  |  | 0.148 | 2.17 |  |
| VMKWCIPSWMCSQD (cysteine pairing not given here; also: displayed on phage as pIII fusion, pIII and linker sequences not given here, Clone of the Peptide-180 library) [Phage-1857] |  |  | 0.165 | 2.16 |  |
| EFIWCRPAWMCMDV [Phage-1870] | 0.0681 | 2.11 |  |  |  |
| SPKWCTPEWMCSHL [Phage-1874] | 0.127 | 2.09 |  |  |  |
| VMKWCIPEWMCQHT [Phage-1872] | 0.199 | 2.09 |  |  |  |
| VEKWCVPTWMCDWV (cysteine pairing not given here; also: displayed on phage as pIII fusion, pIII and linker sequences not given here, Clone of the Peptide-180 library) [Phage-1859] |  |  | 0.0833 | 2.16 |  |
| PSMRCIPEWMCAML (cysteine pairing not given here; also: displayed on phage as pIII fusion, pIII and linker sequences not given here, Clone of the Peptide-180 library) [Phage-1846] |  |  | 0.0824 | 2.2 |  |
| IERWCIPDWMCHVW (tested as crude clonal phage supernatant) [Phage-1877] |  |  |  |  | Anti-PSMA Fab (SEQ ID NOs: 19, 20) signal [5]: 2.08; Anti-PSMA Fab signal in the presence of PSMA [6]: 0.126 |

| Binder | Anti-PSMA Fab signal in the presence of PSMA [1] | Anti-PSMA Fab (SEQ ID NOs: 19, 20) signal [2] | Phage binding ELISA, Anti-PSMA Fab signal in the presence of PSMA [3] | Phage binding ELISA, Anti-PSMA Fab signal [4] | other results |
| --- | --- | --- | --- | --- | --- |
| WENRCTPAWMCKGF [Phage-1867] | 0.0837 | 2.12 |  |  |  |
| WEKWCTPQWMCELI (cysteine pairing not given here; also: displayed on phage as pIII fusion, pIII and linker sequences not given here, Clone of the Peptide-180 library) [Phage-1854] |  |  | 0.182 | 2.17 |  |
| MEKLCKPAWMCSML [Phage-1868] | 0.0627 | 2.11 |  |  |  |
| VEHWCIPAWMCEWM [Phage-1873] | 0.12 | 2.09 |  |  |  |
| SMHWCTPKWMCEGL (cysteine pairing not given here; also: displayed on phage as pIII fusion, pIII and linker sequences not given here, Clone of the Peptide-180 library) [Phage-1847] |  |  | 0.147 | 2.2 |  |
| MEKWCIPEWMCLHT (cysteine pairing not given here; also: displayed on phage as pIII fusion, pIII and linker sequences not given here, Clone of the Peptide-180 library) [Phage-1853] |  |  | 0.0816 | 2.17 |  |
| IMKWCIPEWMCYFF [Phage-1864] | 0.1 | 2.14 |  |  |  |
| AIPWCIPAWMCQVF (cysteine pairing not given here; also: displayed on phage as pIII fusion, pIII and linker sequences not given here, Clone of the Peptide-180 library) [Phage-1848] |  |  | 0.234 | 2.18 |  |
| GDNWCKPEWMCIGF (cysteine pairing not given here; also: displayed on phage as pIII fusion, pIII and linker sequences not given here, Clone of the Peptide-180 library) [Phage-1860] |  |  | 0.0978 | 2.16 |  |
| SIKMCIPQWMCVMQ [Phage-1869] | 0.179 | 2.11 |  |  |  |
| VDKWCTPIWMCEGF (cysteine pairing not given here; also: displayed on phage as pIII fusion, pIII and linker sequences not given here, Clone of the Peptide-180 library) [Phage-1858] |  |  | 0.0951 | 2.16 |  |
| AVKLCIPEWMCVGQ [Phage-1861] | 0.0676 | 2.15 |  |  |  |
| HVKWCIPAWMCEAS [Phage-1871] | 0.0972 | 2.1 |  |  |  |
| FSHWCIPEWMCSTS (cysteine pairing not given here; also: displayed on phage as pIII fusion, pIII and linker sequences not given here, Clone of the Peptide-180 library) [Phage-1849] |  |  | 0.158 | 2.18 |  |
| VVKLCIPEWMCAEW (cysteine pairing not given here; also: displayed on phage as pIII fusion, pIII sequence and linker not given here, tested as crude clonal phage supernatant) [Phage-1876] |  |  |  |  | Anti-PSMA Fab (SEQ ID NOs: 19, 20) signal [5]: 2.08; Anti-PSMA Fab signal in the presence of PSMA [6]: 0.115 |
| LDKWCIPEWMCFDY [Phage-1862] | 0.0678 | 2.14 |  |  |  |
